The record followed here is paper PMC10085699.

For one series, the target named is T1, Sen1-HD (UniProt Q00416 1095-1904).
T1 sequence: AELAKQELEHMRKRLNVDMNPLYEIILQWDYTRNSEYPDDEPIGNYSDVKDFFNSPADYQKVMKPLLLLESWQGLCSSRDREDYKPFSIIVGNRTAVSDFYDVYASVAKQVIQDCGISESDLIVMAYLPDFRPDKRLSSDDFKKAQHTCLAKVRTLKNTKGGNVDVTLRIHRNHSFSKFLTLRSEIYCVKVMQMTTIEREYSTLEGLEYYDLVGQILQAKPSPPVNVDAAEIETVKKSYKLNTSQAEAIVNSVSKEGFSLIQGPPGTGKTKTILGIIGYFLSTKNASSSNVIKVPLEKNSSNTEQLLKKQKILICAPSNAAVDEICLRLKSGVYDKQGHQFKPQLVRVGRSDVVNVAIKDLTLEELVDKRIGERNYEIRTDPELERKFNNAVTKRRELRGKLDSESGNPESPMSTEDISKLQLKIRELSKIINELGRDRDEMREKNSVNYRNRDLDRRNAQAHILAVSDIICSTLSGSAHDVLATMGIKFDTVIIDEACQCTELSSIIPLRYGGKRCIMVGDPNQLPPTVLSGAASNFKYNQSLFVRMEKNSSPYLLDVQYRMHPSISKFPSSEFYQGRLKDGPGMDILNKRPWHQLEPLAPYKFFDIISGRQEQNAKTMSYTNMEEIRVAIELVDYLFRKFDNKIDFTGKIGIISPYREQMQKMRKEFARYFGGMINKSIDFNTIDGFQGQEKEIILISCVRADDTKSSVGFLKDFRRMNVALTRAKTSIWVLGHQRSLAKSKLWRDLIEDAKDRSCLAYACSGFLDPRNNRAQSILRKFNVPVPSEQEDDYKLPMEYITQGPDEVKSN
Put plainly: EMSA. (In EMSA bound probe runs differently from free probe, usually more slowly.)

The target in another series is T2, SETX-HD-DE/AA (Homo sapiens, UniProt Q7Z333 1674-2677, D2181A;E2182A).
T2 sequence: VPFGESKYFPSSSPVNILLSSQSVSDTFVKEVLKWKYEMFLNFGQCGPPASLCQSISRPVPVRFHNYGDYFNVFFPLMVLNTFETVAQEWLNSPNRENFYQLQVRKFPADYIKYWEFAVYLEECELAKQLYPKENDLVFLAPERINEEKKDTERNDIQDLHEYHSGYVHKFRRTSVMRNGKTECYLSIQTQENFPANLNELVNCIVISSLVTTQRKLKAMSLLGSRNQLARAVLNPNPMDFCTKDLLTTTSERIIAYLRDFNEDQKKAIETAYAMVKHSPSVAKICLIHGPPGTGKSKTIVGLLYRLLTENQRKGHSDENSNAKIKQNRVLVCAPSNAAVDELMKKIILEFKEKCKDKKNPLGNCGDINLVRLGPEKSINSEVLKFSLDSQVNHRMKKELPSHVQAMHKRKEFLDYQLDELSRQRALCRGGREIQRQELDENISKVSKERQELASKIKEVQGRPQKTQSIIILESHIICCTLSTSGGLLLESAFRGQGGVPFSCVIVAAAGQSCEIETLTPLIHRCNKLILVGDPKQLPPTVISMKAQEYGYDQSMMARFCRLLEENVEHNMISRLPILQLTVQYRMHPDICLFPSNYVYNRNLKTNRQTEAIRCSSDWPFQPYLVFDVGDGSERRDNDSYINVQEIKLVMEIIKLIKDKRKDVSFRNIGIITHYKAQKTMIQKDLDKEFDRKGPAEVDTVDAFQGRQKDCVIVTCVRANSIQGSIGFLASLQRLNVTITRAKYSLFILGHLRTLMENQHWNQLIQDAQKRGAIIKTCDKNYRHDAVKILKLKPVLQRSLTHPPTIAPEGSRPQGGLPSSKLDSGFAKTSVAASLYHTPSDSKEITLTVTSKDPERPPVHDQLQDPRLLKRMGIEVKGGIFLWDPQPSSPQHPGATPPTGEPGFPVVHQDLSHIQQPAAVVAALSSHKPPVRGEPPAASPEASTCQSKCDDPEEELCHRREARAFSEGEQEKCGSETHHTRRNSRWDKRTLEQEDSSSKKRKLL
Put plainly: EMSA.

B1: ssRNA pRMS678 (61 nt) (ssRNA)
RNA: UUGUCUUCUCAUAAAUUUAAUCCCCGUACGCUUAUACUCCUUUAACUACCCAGUCUUCCCG
With B1, the binding result with Sen1-HD and in the series with SETX-HD-DE/AA was “binds” in each case.
